PMC7299280

Molecular target: SARS-CoV1-SΔ28 (SARS-CoV-1 spike protein truncated at the C terminus, on pseudovirions) (SARS-CoV-1)

## CC6.33 (antibody)
  neutralization IC50 of SARS-CoV-1 pseudovirus: 0.162 µg/mL
